Columns and labels:
[1] = target: T1, Thr221-phosphorylated S6K11-364 (Rattus norvegicus, UniProt P67999); experiment: S6K1 in vitro reconstitution kinase assay with tail peptides; type: biochemical
T1 construct: Purified HA-S6K1-364 was incubated with synthetic S6K1 (rat) tail peptides; made in house; host or cells: COS7, co-transfected with myc-PDK1; anti-HA immunoprecipitate
Description: We established an in vitro reconstitution assay that could test a direct activation of the AGC kinase domain by the tail phosphate and characterize its cooperation with the HM and activation loop phosphates. The deletion mutant S6K11-364, which contains the kinase domain, but lacks the region of the tail containing the tail site and the HM as well as the C-terminal autoinhibitory domain, was expressed and purified from COS7 cells, either non-phosphorylated or phosphorylated at T221 in the activation loop, achieved by co-expression with PDK1. Purified S6K11-364 was then incubated with synthetic peptides of the S6K1 tail (residues 366-395: QTPVDS^371PDDSTLSESANQVFLGFT^389YVAPSV), which were either non-phosphorylated (S371/T389), phosphorylated at the tail site (pS371/T389), phosphorylated in the HM (S371/pT389) or phosphorylated at both sites (pS371/pT389). Subsequently, the kinase activity of S6K11-364 was determined.
Kinase assays for PKB, RSK, S6K, MSK were done as described previously (Frodin et al., 2002). […] After washing with 150 mM orthophosphoric acid, [^32P]phosphate incorporated into peptide substrate was quantified in an FLA-3000 apparatus (Fujifilm). […]

GST-S6K11-365 = experiment: Surface plasmon resonance, S6K1 binding to tail peptides; parameters: species or system rat; conditions: K144N versus wt
Protocol: FIG. 13. The tail phosphate synergistically enhances the ability of the HM phosphate to activate S6K, dependent on the tail phosphate-binding site. (A) The kinase activity of purified kinase domain of S6K1 (S6K11-364), pre-phosphorylated by PDK1 in the activation loop, was determined in the presence of increasing concentrations of synthetic S6K1 tail peptide (residues 366-395) that was either non-phosphorylated (S371/T389), phosphorylated at Ser371 (pS371/T389) or Thr389 (5371/pT389) or phosphorylated at both sites (pS371/pT389). (B) The kinase activity of S6K11-364 and S6K11-364K144N, either pre-phosphorylated or not by PDK1, was determined in the absence or presence of 90 μM S371/pT389 or pS371/pT389. (C) pS371/pT389 S6K1 tail peptide was biotinylated and used to coat streptavidin Sensor Chips. The chips were thereafter analyzed for binding to purified GST-S6K11-365 or GST-56K11-365K144N. (A-C) Experiments were repeated at least 3 times and activity data (expressed as percent) are means±SD.
Sixty 146 cm^2 dishes with COST cells were co-transfected with pEBG-2T-S6K1-365 and pCMV5-myc-PDK1 (ratio 3:1) using calcium phosphate precipitation or with pEBG-2T-PKCζ and pCMV5-myc-PDK1 (ratio 3:1) using Fugene HD according to the manufacturers Instructions. Two days after transfection, the cells were harvested in lysis buffer as described above. […]

T1 sequence (P67999 24-387): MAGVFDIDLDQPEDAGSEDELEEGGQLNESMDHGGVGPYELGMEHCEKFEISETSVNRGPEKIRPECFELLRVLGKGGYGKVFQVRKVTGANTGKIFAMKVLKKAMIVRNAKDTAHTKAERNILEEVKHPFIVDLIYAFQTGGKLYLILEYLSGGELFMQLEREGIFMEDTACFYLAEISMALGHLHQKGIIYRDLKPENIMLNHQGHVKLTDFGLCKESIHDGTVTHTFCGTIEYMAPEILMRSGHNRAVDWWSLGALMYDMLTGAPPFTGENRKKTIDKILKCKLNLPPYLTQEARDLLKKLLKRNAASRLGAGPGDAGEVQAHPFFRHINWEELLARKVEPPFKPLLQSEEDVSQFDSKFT

Substance: pS371/T389: synthetic S6K1 tail peptide (residues 366-395) phosphorylated at the tail site
- stimulation of kinase activity (in words) [1]: did not stimulate
- decrease of binding of S6K11-365 to peptide by the K144N mutation (GST-S6K11-365): about 40%
